Data published in the supplement of paper PMC7125110.
± gives the standard error. This sample holds only a part of the variants without activity.

B1: glmS ribozyme (parent)
chain: AUAAAAGCGCCAGAACUACAGAAAUGUAGUUGACGAGGAGGAGGUUUAUCGAAUUUUCGGCGGAUGCCUCCAAA

Tests used:
Details in all cases: with glucosamine-6-phosphate
[1] = variants of: B1; test: self-cleavage kobs at 160 uM GlcN6P; higher = faster cleavage; RNA array
Summary of the method: (§1)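 Glucosamine-6-phosphate in HEPES/KCl/Mg(OAc)2 buffer, at 40 μM to 10 mM, was flowed over barcoded ribozyme variants transcribed in situ by E. coli RNA polymerase on sequenced MiSeq chips. Tracking was through a hybridised Cy3 probe at 37 °C. kobs, kcat and KM came from exponential decay fits and weighted Michaelis–Menten fits of normalised per-tile medians.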

[2] = variants of: B1; test: self-cleavage kobs at 640 uM GlcN6P; higher = faster cleavage; RNA array
Summary of the method: as §1

[3] = variants of: B1; test: self-cleavage kobs at 2500 uM GlcN6P; higher = faster cleavage; RNA array
Summary of the method: as §1

[4] = variants of: B1; test: self-cleavage kobs at 10000 uM GlcN6P; higher = faster cleavage; RNA array
Summary of the method: as §1

Variant | self-cleavage kobs at 160 uM GlcN6P [1] | self-cleavage kobs at 640 uM GlcN6P [2] | self-cleavage kobs at 2500 uM GlcN6P [3] | self-cleavage kobs at 10000 uM GlcN6P [4]
G29A U46A A53U U56C | < 1e-05 s⁻¹ | < 1e-05 s⁻¹ |  | 
G7A G37U | < 1e-05 s⁻¹ | < 1e-05 s⁻¹ | < 1e-05 s⁻¹ | < 1e-05 s⁻¹
U30C C50U U56C | < 1e-05 s⁻¹ | < 1e-05 s⁻¹ |  | 
U31A A33G C34U G59C | < 1e-05 s⁻¹ | < 1e-05 s⁻¹ |  | 
A14U G35A A64G |  | < 1e-05 s⁻¹ |  | 
U30A C34U G41C G51A |  | < 1e-05 s⁻¹ |  | 
G7A A12G U31A C68G |  | 0.000116 ± 3.5e-05 s⁻¹ |  | 
A33U G44U A48C |  | < 1e-05 s⁻¹ |  | 
G29C A53G G63U |  | < 1e-05 s⁻¹ |  | 
A6U C61G C67A |  | 0.000106 ± 3.9e-05 s⁻¹ | 0.00149 ± 0.00065 s⁻¹ | 
A15G C16A G60U | < 1e-05 s⁻¹ | < 1e-05 s⁻¹ | < 1e-05 s⁻¹ | 
G13A U30A U31A A42C U46G | < 1e-05 s⁻¹ |  | < 1e-05 s⁻¹ | 
C11G A33C G35C G62A | < 1e-05 s⁻¹ | < 1e-05 s⁻¹ |  | 
A15G A42C A64C U69C |  | < 1e-05 s⁻¹ |  | 
A14G A36C | < 1e-05 s⁻¹ | < 1e-05 s⁻¹ |  | 
A39G C58U G63U | < 1e-05 s⁻¹ | < 1e-05 s⁻¹ |  | 
G9U U31G A48G | < 1e-05 s⁻¹ |  |  | 
C61U G66C |  | < 1e-05 s⁻¹ | < 1e-05 s⁻¹ | 
G32U U45G C70A | < 1e-05 s⁻¹ | < 1e-05 s⁻¹ |  | 
A6U G40A A52C | < 1e-05 s⁻¹ | < 1e-05 s⁻¹ | < 1e-05 s⁻¹ | 

Variant | self-cleavage kobs at 160 uM GlcN6P [1] | self-cleavage kobs at 640 uM GlcN6P [2] | self-cleavage kobs at 2500 uM GlcN6P [3] | self-cleavage kobs at 10000 uM GlcN6P [4]
A6U A12G A48U G59U G62A | < 1e-05 s⁻¹ |  |  | 
A42G C50G A64G | < 1e-05 s⁻¹ |  |  | 
A42C U47C | < 1e-05 s⁻¹ | < 1e-05 s⁻¹ | < 1e-05 s⁻¹ | 
A6G A14U C16G U56A |  | < 1e-05 s⁻¹ |  | 
C16A G51U U69G |  | 9.84e-05 ± 4.1e-05 s⁻¹ | 0.000199 ± 9.6e-05 s⁻¹ | 
A6G U69C | < 1e-05 s⁻¹ |  |  | 2.56e-05 ± 1e-05 s⁻¹
U57C G62A | < 1e-05 s⁻¹ |  |  | < 1e-05 s⁻¹
G51U G62U A64C | < 1e-05 s⁻¹ |  |  | 
A6U A12G G66U | 8.08e-05 ± 2.3e-05 s⁻¹ |  |  | 
G43A A48G A53U G62C |  | < 1e-05 s⁻¹ |  | 
G9U G32C | < 1e-05 s⁻¹ | < 1e-05 s⁻¹ |  | < 1e-05 s⁻¹
U31A U46G A48G |  | < 1e-05 s⁻¹ |  | 
C19A U30A |  | 0.000125 ± 2.9e-05 s⁻¹ | 0.000235 ± 4.3e-05 s⁻¹ | 
A6G G7U A14G A33C | < 1e-05 s⁻¹ |  |  | 
G29U G60U | < 1e-05 s⁻¹ | < 1e-05 s⁻¹ | < 1e-05 s⁻¹ | < 1e-05 s⁻¹
G35C C67G | < 1e-05 s⁻¹ | < 1e-05 s⁻¹ | < 1e-05 s⁻¹ | 
U46A C58G |  | < 1e-05 s⁻¹ |  | 
G29U G32A G37U G66A | < 1e-05 s⁻¹ | < 1e-05 s⁻¹ | < 1e-05 s⁻¹ | 
C11U G51U A53G | < 1e-05 s⁻¹ |  |  | 
G37A C50U G51U |  | < 1e-05 s⁻¹ | < 1e-05 s⁻¹ | 

Variant | self-cleavage kobs at 160 uM GlcN6P [1] | self-cleavage kobs at 640 uM GlcN6P [2] | self-cleavage kobs at 2500 uM GlcN6P [3] | self-cleavage kobs at 10000 uM GlcN6P [4]
G41C U45G C71U |  | 4.68e-05 ± 1.6e-05 s⁻¹ | 0.000157 ± 3.9e-05 s⁻¹ | 
U30A U31C A39U |  | 0.00038 ± 0.00011 s⁻¹ | 0.000577 ± 0.00018 s⁻¹ | 
C34U U45C U65A | < 1e-05 s⁻¹ | < 1e-05 s⁻¹ |  | 
C34U A48U A64U |  | < 1e-05 s⁻¹ | < 1e-05 s⁻¹ | 
A36U A52U |  | < 1e-05 s⁻¹ | < 1e-05 s⁻¹ | 
C11A C16U U69G |  | 0.000429 ± 0.00014 s⁻¹ |  | 
C11G G32A U65G | < 1e-05 s⁻¹ | < 1e-05 s⁻¹ |  | < 1e-05 s⁻¹
G38U A42G | < 1e-05 s⁻¹ | < 1e-05 s⁻¹ |  | 
C10A A14G | < 1e-05 s⁻¹ |  |  | 3.58e-05 ± 1.1e-05 s⁻¹
G62U C68G | < 1e-05 s⁻¹ | < 1e-05 s⁻¹ |  | < 1e-05 s⁻¹
A6G U46C U57G | < 1e-05 s⁻¹ |  |  | 
A6G G9A | < 1e-05 s⁻¹ | < 1e-05 s⁻¹ | < 1e-05 s⁻¹ | < 1e-05 s⁻¹
A33C G59A | < 1e-05 s⁻¹ | < 1e-05 s⁻¹ | < 1e-05 s⁻¹ | 
G40A A42G U46A |  | 0.000129 ± 4.5e-05 s⁻¹ | 0.000599 ± 0.0003 s⁻¹ | 0.00096 ± 0.00023 s⁻¹
G43A U65C | < 1e-05 s⁻¹ | < 1e-05 s⁻¹ | < 1e-05 s⁻¹ | 
G62A G66C C67A |  | < 1e-05 s⁻¹ |  | 
C8G A36G A39U G43U |  | < 1e-05 s⁻¹ | < 1e-05 s⁻¹ | 
A12G G13C G29A C50G | 0.00168 ± 0.00066 s⁻¹ |  | 4.52e-05 ± 1.8e-05 s⁻¹ | 
U30G U54G U56G | 0.00021 ± 5.7e-05 s⁻¹ | 0.000994 ± 0.00019 s⁻¹ | 0.00255 ± 0.00053 s⁻¹ | 
